Data set [1] addresses T1, follicle-stimulating hormone (FSH) (Homo sapiens (Human)., UniProt P01215;P01225).
T1 construct: FSH alpha subunit (FSHα, glycoprotein hormones alpha chain); FSH beta subunit (FSHβ); Heterodimeric hormone
In words: protein thermal shift assay; antibody incubated with FSH; right-shift in melting temperature (Tm) of the ligand-binding Fab domain. The settings on record: both partners purified.

Data set [2] deals with T1, follicle-stimulating hormone (FSH). In words: cell-based or functional assay.

T1 sequence (P01215 25-116, chain 1 of 2): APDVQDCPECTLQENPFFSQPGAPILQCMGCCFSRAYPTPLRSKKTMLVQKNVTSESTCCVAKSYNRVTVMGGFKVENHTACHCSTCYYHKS
T1 sequence (P01225 19-129, chain 2 of 2): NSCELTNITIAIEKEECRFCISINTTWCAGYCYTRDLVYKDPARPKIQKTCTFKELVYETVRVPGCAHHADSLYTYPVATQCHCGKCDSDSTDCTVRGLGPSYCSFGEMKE

B1: MS-Hu6 (antibody, V domains shown)
VH: QVQLQESGPGLVKPSQTLSLTCTVSGFSITSDYAWNWIRQPPGKGLEWIGSIFSSGSINYNPSLKSRVTISRDTSKNQFSLKLSSVTAADTAVYYCARGGTGTDYWGQGTLVTVSS
VL: DIQMTQSPSSLSASVGDRVTITCRASQDISNYLSWYQQKPGKAIKLLIYYTSRLHSGVPSRFSGSGSGTDYTLTISSLQPEDFATYFCQQGHTLPPTFGGGTKVEIK
notes: humanized VH and CH1; heavy chain of the Fab fragment (Hu6-Fab) deposited as PDB 8VZW; hinge and Fc of the full-length IgG; humanized VL and CL; light chain of the Fab fragment (Hu6-Fab) deposited as PDB 8VZW; the chimeric precursor used human IgK-CL; Full-length humanized IgG derived from the murine antibody Hf2 with the CDRs unaltered; The crystal was of the Fab fragment only
For B1, the “right-shift in Tm of the Fab domain” value in data set [1] is approximately 1.8 °C. Further, in data set [2], the “EC50 based on UCP1 activation in dedifferentiated brown adipocytes (Thermo cells)” value worked out at 3.21 nM, the “IC50 for cAMP inhibition in SH-SY5Y human neuroblastoma cells” value is 2.01 nM and the “IC50 of inhibition of cAMP elevation in response to FSH (5 μg/mL) in KGN human ovarian cancer cells” value turned out to be 0.64 nM.

Source of the values: paper PMC12404759, “Efficacy and safety of a therapeutic humanized FSH-blocking antibody in obesity and Alzheimer’s disease models” (The Journal of Clinical Investigation, 2025).
